The Human Domainome abundance scans (Beltran et al. 2025)
± gives the uncertainty stated by the source.

B1: Tumor protein 63, residues 545 to 610; numbered along this chain, Q9H3D4 (parent)
chain: TDCSIVSFLARLGCSSCLDYFTTQGLTTIYQIEHYSMDDLASLKIPEQFRHAIWKGILDHRQLHEF

Variants of: B1
Experiment: abundance fitness (aPCA) (normalised: wild type 0, dead -1); higher = more abundant; growth selection in yeast, the domain comes from the species named
Settings: Homo sapiens

Variant | abundance fitness
TDCSIVSFLARLGCSSCLDYFTTQGLTTIYQIEHYSMDDLASLKIPEQFRHAIWKGILLHRQLHEF [D59L] | -0.074 ± 0.023
TDCSIVSFLARLGCISCLDYFTTQGLTTIYQIEHYSMDDLASLKIPEQFRHAIWKGILDHRQLHEF [S15I] | -0.042 ± 0.04
TDCSIVSFLARLGCFSCLDYFTTQGLTTIYQIEHYSMDDLASLKIPEQFRHAIWKGILDHRQLHEF [S15F] | -0.157 ± 0.029
TDCWIVSFLARLGCSSCLDYFTTQGLTTIYQIEHYSMDDLASLKIPEQFRHAIWKGILDHRQLHEF [S4W] | -0.224 ± 0.028
TDCSIVSFLARLGCSSCLDYFTTQGLTTIYQIEHYSMDDLASLKIPEQFDHAIWKGILDHRQLHEF [R50D] | -0.712 ± 0.074
TDCSIVSFLARLGCSSCLDYFTTQGLTTIYQIEHYSMDDLASLKIPEQFSHAIWKGILDHRQLHEF [R50S] | -0.102 ± 0.025
TDCSIVSFLARLGCSSCLDYFTTQGLTTIYQIEHYSMDDDASLKIPEQFRHAIWKGILDHRQLHEF [L40D] | -0.897 ± 0.096
TDCSIVSFLARLGCSSCLDYFTTQGLTTIYQIEHYSMDDYASLKIPEQFRHAIWKGILDHRQLHEF [L40Y] | -0.277 ± 0.041
TDCSIVSFLARLGCSSCLDYFTTQGLTTIYQIEHYSMDDLASLKIPEQFRHAIWKGILDWRQLHEF [H60W] | -0.017 ± 0.038
TDCSIVSFLARLGCSSCLDYFTTQGLTTIYQIPHYSMDDLASLKIPEQFRHAIWKGILDHRQLHEF [E33P] | -0.772 ± 0.082
TDCSIVSFLARLGCSSCLDYFTTQGLTAIYQIEHYSMDDLASLKIPEQFRHAIWKGILDHRQLHEF [T28A] | -0.065 ± 0.027
TDCSIVSFLARLGCSSCLDYFTTQGLTHIYQIEHYSMDDLASLKIPEQFRHAIWKGILDHRQLHEF [T28H] | -0.056 ± 0.042
TDCSIVSFLARLGCSSCLDYFTTQGLTDIYQIEHYSMDDLASLKIPEQFRHAIWKGILDHRQLHEF [T28D] | -0.021 ± 0.036
TDCSIVSFLARLGCSSCLDYFTTQGLTTIYQIEWYSMDDLASLKIPEQFRHAIWKGILDHRQLHEF [H34W] | -0.06 ± 0.025
TDCSIVSFLARLGCSSCLDYFTTQGLTTIYQIEQYSMDDLASLKIPEQFRHAIWKGILDHRQLHEF [H34Q] | -0.041 ± 0.032
TDCSIVSFLARLGCSSCLDYFTTQGLTTIYQIEAYSMDDLASLKIPEQFRHAIWKGILDHRQLHEF [H34A] | -0.037 ± 0.024
TDCSIVSFLARLGCSSCLDYFTTQGLTTIYRIEHYSMDDLASLKIPEQFRHAIWKGILDHRQLHEF [Q31R] | -0.427 ± 0.038
TDCSIVSFLARLGCSSCLDYFTTQGLTTIYDIEHYSMDDLASLKIPEQFRHAIWKGILDHRQLHEF [Q31D] | -0.019 ± 0.035
TDCSIVSFLARLGCSSCLDYFTQQGLTTIYQIEHYSMDDLASLKIPEQFRHAIWKGILDHRQLHEF [T23Q] | 0 ± 0.036
TDCSIVSFLARLGCSSCLDYFTVQGLTTIYQIEHYSMDDLASLKIPEQFRHAIWKGILDHRQLHEF [T23V] | -0.044 ± 0.024
TDCSIVSFLARLGCSSCLDYFTSQGLTTIYQIEHYSMDDLASLKIPEQFRHAIWKGILDHRQLHEF [T23S] | -0.037 ± 0.023

Variant | abundance fitness
TDCSIVSFLAHLGCSSCLDYFTTQGLTTIYQIEHYSMDDLASLKIPEQFRHAIWKGILDHRQLHEF [R11H] | -0.127 ± 0.051
TDCSIVSFLARLGCSSCLDYFTTQGLTTIYQIEHYSMDDLHSLKIPEQFRHAIWKGILDHRQLHEF [A41H] | -0.081 ± 0.047
TDCSIVSFLARLGCSSCLDYFTTQGLTTIYQIEHYSMDDLGSLKIPEQFRHAIWKGILDHRQLHEF [A41G] | -0.043 ± 0.023
TDCSIVSFLARLGCSSCLDYFTTQGLTTIYQIEHYAMDDLASLKIPEQFRHAIWKGILDHRQLHEF [S36A] | -0.062 ± 0.025
TDCSIVSFLARLGCSSCLDYFTTQGLTTIYQIEHYGMDDLASLKIPEQFRHAIWKGILDHRQLHEF [S36G] | -0.028 ± 0.018
TDCSIVSFLARLGCSSCLDYFTTQGLTTIYQIEHYIMDDLASLKIPEQFRHAIWKGILDHRQLHEF [S36I] | -0.188 ± 0.04
TDCSIVSFLARLGCSSCLDYFTTQGLTTIYQIEHRSMDDLASLKIPEQFRHAIWKGILDHRQLHEF [Y35R] | -0.48 ± 0.021
TDCSIVSFLARLGCSSCLDYFTTQGLTTIYQIEHFSMDDLASLKIPEQFRHAIWKGILDHRQLHEF [Y35F] | -0.012 ± 0.038
TDCSIVSFLARLGCSSCLDYFTTQGLTTIYQIEHPSMDDLASLKIPEQFRHAIWKGILDHRQLHEF [Y35P] | -0.955 ± 0.15
TDCSIVSFLARLGCSSCLDYFTTQGLTTIYQIEHYSMDDLAYLKIPEQFRHAIWKGILDHRQLHEF [S42Y] | -0.069 ± 0.045
TDCSIVSFLARLGCSSCLDYFTTQGLTTIYQIEHYSMDDLASLKIPEQFRHAIWKGIRDHRQLHEF [L58R] | 0.006 ± 0.024
TDCSIVSFLARLGCSSCLDYFTTQFLTTIYQIEHYSMDDLASLKIPEQFRHAIWKGILDHRQLHEF [G25F] | -0.549 ± 0.046
TDCSIVSFLARLGCSSCLDYFTTQELTTIYQIEHYSMDDLASLKIPEQFRHAIWKGILDHRQLHEF [G25E] | -0.067 ± 0.061
TDCSIVSFLARLGCSSCLDYFTTQSLTTIYQIEHYSMDDLASLKIPEQFRHAIWKGILDHRQLHEF [G25S] | -0.062 ± 0.019
TDCSMVSFLARLGCSSCLDYFTTQGLTTIYQIEHYSMDDLASLKIPEQFRHAIWKGILDHRQLHEF [I5M] | -0.021 ± 0.027
TDCSIVSFLARLGCSSCLDYFTTQGLTTIYQIEHYSMDDLASLKIPEQFRHAPWKGILDHRQLHEF [I53P] | -1.07 ± 0.12
TDCSIVSFLARLGCSSCLDYFTTQGLTTIYQIEHYSMDDLASLKIPEQFRHAMWKGILDHRQLHEF [I53M] | -0.403 ± 0.046
TDCSIVSFLARLGCSSCLDYFTTQGLTTIYQIEHYSMDDLASLKIPEQFRHASWKGILDHRQLHEF [I53S] | -0.918 ± 0.057
TDCSIVSFLARLGCSSCLDYFTTQGLTTIYQIEHYSMDDLASLKIPEQFRHANWKGILDHRQLHEF [I53N] | -0.783 ± 0.1
TDCSIVSFLARLGCSSCLDYFTTQGLTTIYQIEHYSMDDLASLKIPEQFRHAIWKGILDHRQLHLF [E65L] | -0.08 ± 0.035
